Test results published in PMC5595237 (Nature, 2017).

Target: the molecule itself
Experiment: SEC

B1: full-length human adiponectin (ligand)
chain: ETTTQGPGVLLPLPKGACTGWMAGIPGHPGHNGAPGRDGRDGTPGEKGEKGDPGLIGPKGDIGETGVPGAEGPRGFPGIQGRKGEPGEGAYVYRSAFSVGLETYVTIPNMPIRFTKIFYNQQNHYDGSTGKFHCNIPGLYYFAYHITVYMKDVKVSLFKKDKAMLFTYDQYQENNVDQASGSVLLHLEVGDQVWLQVYGEGERNGLYADNDNDSTFTGFLLYHDTN
Question: Does B1 bind?
Answer: binds
